Measured values from US20230357353A1 (RAMOT AT TEL AVIV UNIVERSITY, published 2023).

Key:
[1] = biological target: T1, low affinity (LA) α4β7 integrin on non-activated cells (Ca2+ control, no Mn2+) (mouse, UniProt Q00651 41-1039; P26011 20-806); assay: flow cytometry on TK-1 cells without Mn2+ (Ca2+ control)
T1 construct: whole, on cells
Description: (§1) In-vitro binding—TK-1 cells were activated according to Y. Yang et al.³⁰. Briefly, cells were washed with PBS and resuspended in resuspension buffer (HBSS with 10 mM HEPES buffer, 2 mM CaCl₂ and 2 mM MgCl₂). Non-activated cells were kept on ice while activated cells were resuspended in pre-incubation buffer (HBSS with 10 mM HEPES buffer and 2 mM EDTA), incubated at RT for 30 minutes with gentle rotation, washed with PBS and finally resuspended in activation buffer (HBSS with 10 mM HEPES buffer, 2 mM CaCl₂ and 2 mM MnCl₂). MAdCAM-D1D2-Fc and the controls were added to both activated and non-activated cells and incubated for 30 minutes at 4° C. Cells were subsequently washed and stained with either anti-human IgG or anti-mouse IgG conjugated to AlexaFluor647 (Biolegend, USA). Binding of D1D2-Fc to TK-1 cells was assessed by analyzing the fluorescence of the cells by flow cytometry. Binding of D1D2-targeted Cy5-LNPs was detected by flow cytometry directly using the Cy5 fluorescence (without addition of another antibody). In the binding experiments with Cy5-LNPs, the HBSS in the activation buffer was replaced with RPMI+10% FBS due to a high background using LNPs.
(§2) Following purification, the functionality of the generated D1D2-Fc and mD1D2-Fc was tested in-vitro by assessing their binding to TK-1 cells using flow cytometry. […]

[2] = biological target: T2, high affinity (HA) α4β7 integrin on activated cells (Mn2+-treated TK-1 cells or primary mouse leukocytes) (mouse, UniProt Q00651 41-1039; P26011 20-806); assay: flow cytometry on Mn2+-treated TK-1 cells
T2 construct: whole, on cells; Same polypeptides as m4; also called LPAM-1
Description: as §1, §2

T2 sequence (Q00651 41-1039, chain 1 of 2): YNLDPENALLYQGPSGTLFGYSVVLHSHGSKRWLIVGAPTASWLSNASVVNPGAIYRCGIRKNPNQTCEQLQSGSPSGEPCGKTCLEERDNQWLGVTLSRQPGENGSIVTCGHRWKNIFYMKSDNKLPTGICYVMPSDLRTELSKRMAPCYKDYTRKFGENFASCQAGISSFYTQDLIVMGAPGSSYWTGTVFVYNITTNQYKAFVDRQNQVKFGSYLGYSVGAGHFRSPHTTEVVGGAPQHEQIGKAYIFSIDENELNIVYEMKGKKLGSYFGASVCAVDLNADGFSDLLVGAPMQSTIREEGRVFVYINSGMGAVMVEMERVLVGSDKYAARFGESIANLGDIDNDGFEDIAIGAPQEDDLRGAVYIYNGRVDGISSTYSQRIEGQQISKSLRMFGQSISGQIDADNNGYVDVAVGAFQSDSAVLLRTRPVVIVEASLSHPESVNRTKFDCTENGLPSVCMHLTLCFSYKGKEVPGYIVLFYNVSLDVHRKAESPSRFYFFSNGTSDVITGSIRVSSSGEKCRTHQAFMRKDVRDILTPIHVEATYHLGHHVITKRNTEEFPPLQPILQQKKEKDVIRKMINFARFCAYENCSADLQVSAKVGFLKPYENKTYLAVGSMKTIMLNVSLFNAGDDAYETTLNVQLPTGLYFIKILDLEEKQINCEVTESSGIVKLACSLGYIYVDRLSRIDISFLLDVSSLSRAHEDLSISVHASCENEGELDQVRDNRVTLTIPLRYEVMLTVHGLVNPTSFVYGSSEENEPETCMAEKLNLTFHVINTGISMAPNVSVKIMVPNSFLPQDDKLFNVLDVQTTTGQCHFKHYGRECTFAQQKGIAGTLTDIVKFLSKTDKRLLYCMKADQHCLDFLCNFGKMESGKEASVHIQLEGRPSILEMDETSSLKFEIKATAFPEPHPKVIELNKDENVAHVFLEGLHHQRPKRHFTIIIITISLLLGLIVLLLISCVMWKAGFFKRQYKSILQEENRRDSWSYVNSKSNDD
T2 sequence (P26011 20-806, chain 2 of 2): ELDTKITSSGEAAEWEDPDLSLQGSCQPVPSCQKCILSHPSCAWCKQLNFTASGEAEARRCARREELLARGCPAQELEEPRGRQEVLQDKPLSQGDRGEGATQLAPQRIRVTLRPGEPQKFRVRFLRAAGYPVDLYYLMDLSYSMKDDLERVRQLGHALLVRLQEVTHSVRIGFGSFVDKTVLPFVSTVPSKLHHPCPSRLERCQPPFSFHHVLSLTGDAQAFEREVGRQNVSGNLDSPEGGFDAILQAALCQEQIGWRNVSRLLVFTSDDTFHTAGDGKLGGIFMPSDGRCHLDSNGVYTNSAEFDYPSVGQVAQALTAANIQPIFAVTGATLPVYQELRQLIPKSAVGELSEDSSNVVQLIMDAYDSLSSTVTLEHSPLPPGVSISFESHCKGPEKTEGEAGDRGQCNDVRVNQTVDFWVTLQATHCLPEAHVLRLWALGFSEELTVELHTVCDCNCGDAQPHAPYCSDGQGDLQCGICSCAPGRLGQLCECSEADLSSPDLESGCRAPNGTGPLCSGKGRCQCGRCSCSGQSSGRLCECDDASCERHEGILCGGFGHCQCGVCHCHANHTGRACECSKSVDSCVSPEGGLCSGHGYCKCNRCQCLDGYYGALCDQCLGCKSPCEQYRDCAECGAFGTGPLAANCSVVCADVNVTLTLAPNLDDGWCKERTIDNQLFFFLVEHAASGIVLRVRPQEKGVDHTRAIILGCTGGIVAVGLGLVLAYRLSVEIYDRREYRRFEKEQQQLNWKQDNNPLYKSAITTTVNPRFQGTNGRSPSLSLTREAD
T1 sequence (Q00651 41-1039, chain 1 of 2): as the sequence (Q00651 41-1039, chain 1 of 2) above
T1 sequence (P26011 20-806, chain 2 of 2): as the sequence (P26011 20-806, chain 2 of 2) above

B1: MAdCAM-mD1D2-Fc fusion protein (D62A mutated control) (Fc fusion)
chain: DYKDDDDKLAAAQSFQVNPPESEVAVAMGTSLQITCSMSCDEGVARVHWRGLATSLGSVQTLPGSSILSVRGMLSDTGTPVCVGSCGSRSFQHSVKILVYAFPDQLVVSPEFLVPGQDQVVSCTAHNIWPADPNSLSFALLLGEQRLEGAQALEPEQEEEIQEAEGTPLFRMTQRWRLPSLGTPAPPALHCQVTMQLPKLVLTHRKEIPVLGGGGSGGGGSGGGGSVPRECNPCGCTGSEVSSVFIFPPKTKDVLTITLTPKVTCVVVDISQNDPEVRFSWFIDDVEVHTAQTHAPEKQSNSTLRSVSELPIVHRDWLNGKTFKCKVNSGAFPAPIEKSISKPEGTPRGPQVYTMAPPKEEMTQSQVSITCMVKGFYPPDIYTEWKMNGQPQENYKNTPPTMDTDGSYFLYSKLNVKKETWQQGNTFTCSVLHEGLHNHHTEKSLSHSPGKGSGHHHHHH
notes: The signal peptide, FLAG-tag and 6x HIS-tag are as in D1D2-Fc; also called mD1D2 control; targeting protein of the mD1D2-targeted LNPs (mD1D2-LNPs)
Q: Does B1 bind [1]?
A: no binding

Q: Does B1 bind [2]?
A: no binding
